The values below are quoted from earlier work in PMC6323488.

The term Kd denotes a measure of binding affinity in units of concentration.

In the data set the target is EGFR (Homo sapiens) (UniProt P00533).

CTGF (from UniProt P29279): the dissociation constant (Kd) is 126 nM.
